Results on 141 substances are retold here after the supplement of paper PMC12042874.

± gives the uncertainty stated by the source.

The data set is described as follows: amyloid nucleation score (Sup35N fusion, yeast selection) (log enrichment); library NNK1; higher = more nucleation; inactive = no reads after selection. The essentials: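 Psi-negative yeast expressed Sup35N fused to peptides of 20 random codons. They were induced 24 hours with 100 μM copper sulfate, grown 7 days at 30°C without adenine and uracil, and their plasmid inserts from input and output were Illumina-sequenced. The nucleation score is the DiMSum log enrichment of output over input reads, centred on the mode score of non-aggregating sequences. Sequences with under 100 input reads were excluded.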

Substance CYVSS gave an amyloid nucleation score of -0.548 ± 0.53.
On to DAFAGF, for which the amyloid nucleation score came out at 0.054 ± 0.59.
Regarding GMCIRNRMRDNVNSLSSACD, the amyloid nucleation score worked out at 0.362 ± 1.4.
For FVGTKQWMARGLVNDVKPVH the value was -0.161 ± 0.45; for VFWGL, 0.072 ± 0.47.
The substance TMFHLWNFGCVALVR registered an amyloid nucleation score of -0.104 ± 0.34.
The substance EMVLLNATFYYAYCHSNRLR returned an amyloid nucleation score of 0.227 ± 0.27.
The same measure for HHHLNYTINIRQSYFVMCGG: 5 ± 0.071; for NVVAYTCNFFCDGSLSGYLC: 0.784 ± 0.41.
For GFSILAPSKYVVNYWMHPQS, the amyloid nucleation score is 7.691 ± 0.049.
Consider DCVKGHSECCRPSKLVKYWR, for which the amyloid nucleation score result was “inactive”.
With SWLDLNLIDHQAFAFSSFGQ, the amyloid nucleation score amounted to 0.183 ± 0.3.
In turn, LWLLYVIECHLGCYRTVLMG had an amyloid nucleation score of -0.385 ± 0.93.
LLNAFWSFAY showed an amyloid nucleation score of 1.6 ± 0.32.
For WGTVYVPV the value was 1.72 ± 0.49.
On to KCSVCF, for which the amyloid nucleation score is 2.24 ± 0.35.
The same measure for SLITVSHMPWGCT: 0.342 ± 0.36; for HSVFVMVCSSCMVG: 8.892 ± 0.068; for SGKYAFLFLVYCTGVLMKCW: -1.17 ± 1.7.
SHRSRGLANRSCDGVPTVRR gave an amyloid nucleation score of 1.84 ± 0.46.
In turn, NTVIVPHLIILLDYSKVWAE showed an amyloid nucleation score of 3.28 ± 0.069.
The substance PPFDSDKA had an amyloid nucleation score of 0.335 ± 0.77.
As to RRSYVSSEMNTSKRKSCPLS, the amyloid nucleation score came out at 0.659 ± 0.45.
Substance MMRTWGLFRVGRWESWRPVR registered an amyloid nucleation score of 0.26 ± 0.78.
For RSGSLCGFLREKKVRNTFWV the value was -0.376 ± 0.59; for WHPRSLVPPTRL, 0.758 ± 0.56; for LLLGW, -0.102 ± 0.32.
Consider MWPRIPLRDPVVWEHRYCGI, for which the amyloid nucleation score was -0.391 ± 0.65.
Regarding EFTVPRWTPTGHTSGSLEWV, the amyloid nucleation score amounted to 0.22 ± 0.41.
CVALGGLMAMLIASVIWENN yielded an amyloid nucleation score of -0.354 ± 0.72.
SKSFDRKMVC returned an amyloid nucleation score of -0.092 ± 0.33.
The same measure for FLICVTSNWLGTYCRVERFW: 0.023 ± 0.35; for FIRLLGSMV: 0.622 ± 0.84; for ILCFFRECLLDWVSLGRFIV: “inactive”.
The same measure for YWGLQPFMIY: 0.272 ± 0.74.
In the case of LVGVWMDCLMKPKPIARTLP, the amyloid nucleation score entry was “inactive”.
In turn, HQFSVHIPCCYSVPGNLYGW returned an amyloid nucleation score of 0.888 ± 0.73.
The same measure for FRGWV: 1.62 ± 0.12; for DKLICLMLEAASICYKVQSG: -0.673 ± 0.57; for MRWHINATLNGRLGAGLILV: -0.526 ± 0.7.
The substance LSGSMGA returned an amyloid nucleation score of -0.105 ± 0.44.
The same measure for VHDENYDRFQGFVLDMLQAH: 0.641 ± 0.37; for ASGFESCDTEVVGFRGVCYA: 1.42 ± 0.51.
Regarding DVYVSCGYVSQMGPHAEWDG, the amyloid nucleation score came to 0.102 ± 0.54.
The same measure for MSLSFAPLAIYPDNIVTDVI: -0.329 ± 0.7.
With RANSGNVTFMVRPAFMVVLK, the amyloid nucleation score was -0.389 ± 0.78.
SFSSPHLPYTCGSSIG showed an amyloid nucleation score of 0.258 ± 0.66.
For WVTQVDWSGRR the value was -0.348 ± 0.77.
The same measure for WLWINPMEVDYGVLTRLEKT: -0.213 ± 0.26; for DARLFDFYFANLVSSQGNCF: 1.09 ± 0.56; for WNEWRGHVTILGDLYSYRHT: 3.6 ± 0.16.
With VRIINMFVDPNIIL, the amyloid nucleation score was determined as 6.818 ± 0.044.
Turning to MVAEIYQAFWVC, the amyloid nucleation score was -0.349 ± 1.2.
The substance VLMITGVCCSHNMLVLADKR had an amyloid nucleation score of 6.609 ± 0.057.
HFAGCNSIDLQCNIRCKNIR came in with an amyloid nucleation score of 5.469 ± 0.048.
The substance EGSIFCMRNCRTIWCSEE showed an amyloid nucleation score of -0.359 ± 0.33.
For HSSWEYSSYGVPSNMEKDWV the value was “inactive”; for DWRLNLVYKMSA, 0.734 ± 0.75.
For QGLNNMHSGVVLKMLT, the amyloid nucleation score worked out at 1.22 ± 0.54.
Turning to CGMVGWTSLPEQNRYPIPST, the amyloid nucleation score is -0.511 ± 1.1.
Substance PVLYNHCGVNLCPTLCLSNY yielded an amyloid nucleation score of 7.199 ± 0.053.
Substance QTGQRFALKDSTSNSIPYLE had an amyloid nucleation score of -0.607 ± 0.96.
Regarding WSLVDDPLVFERLFWPCYQ, the amyloid nucleation score was determined as 0.142 ± 0.31.
TIECFYGVVSFRHNQYYGAQ had an amyloid nucleation score of 2.16 ± 0.17.
For YRLRGGP the value was -0.25 ± 1.2; for SHVLCSDTNTI, “inactive”.
In turn, DASTEITGLAPGFSTTVGRM yielded an amyloid nucleation score of -0.536 ± 0.81.
For LVGRYSWWQRRRHGTCMGTV the value was 0.629 ± 0.54; for TKDRFYEC, 0.419 ± 0.58; for PNAVCGQWFEDQL, -0.269 ± 0.94.
Turning to CGGFRNMRVPVHLVPACRW, the amyloid nucleation score was 0.334 ± 0.68.
With RRRMFSCLDPEVWEVQRGRV, the amyloid nucleation score is -0.348 ± 0.68.
GVFVKGWYWKWGMGDELQAA had an amyloid nucleation score of 0.182 ± 0.79.
The same measure for ILFMLECGMSTTSCHKIRVC: -0.157 ± 0.36; for TPRYVLLVC: -0.983 ± 2.4.
YQETPVNPEPVV came in with an amyloid nucleation score of -0.01 ± 0.38.
In turn, AVKYRGNVMFKIRHIMLKCM registered an amyloid nucleation score of 0.023 ± 0.42.
On to GSCDMKVVVKCHCEYGMKQD, for which the amyloid nucleation score is 2.24 ± 0.13.
As to THNSLFSHVSWYRCVSSGVF, the amyloid nucleation score was determined as 0.304 ± 1.1.
As for SILCESFVGCLDAMRDRVYY, the amyloid nucleation score is -0.036 ± 0.61.
The same measure for HSNMVNS: -0.73 ± 0.33; for SGVLLINGVA: 0.699 ± 0.42; for KFVVMGWGYLTIRVVSVTDK: 1.92 ± 0.64.
In turn, KSLQTETFTKTAATQKSELA showed an amyloid nucleation score of -0.3 ± 0.52.
Consider AAAFYWLN, for which the amyloid nucleation score is -1.2 ± 1.3.
In the case of ITCSHPQRMLVCSCKSPWCF, the amyloid nucleation score is 3.31 ± 0.13.
The same measure for LKFKARLRRTLPVQQNRAIG: “inactive”.
As to MKTMRKW, the amyloid nucleation score result was “inactive”.
The substance RNSMGLLAVEDVC showed an amyloid nucleation score of -1.16 ± 0.61.
On to RYYLISEPILWIYGY, for which the amyloid nucleation score was -0.031 ± 0.33.
The same measure for NMYNVRLFVPHFSLECLTWY: 2.87 ± 0.12.
FRHVQSMRACFLKSKYGATI registered an amyloid nucleation score of 0.195 ± 0.84.
Turning to RTKLVEHSMFCNGGEKRHTP, the amyloid nucleation score was 0.574 ± 0.56.
KVFSVHRHCQESVVGAVLCS returned an amyloid nucleation score of -0.371 ± 0.73.
For QRGMTIL, the amyloid nucleation score worked out at 0.109 ± 0.31.
As for TVITFRLAT, the amyloid nucleation score amounted to 1.69 ± 0.26.
LRLPSRAFEGFRREAAWGST had an amyloid nucleation score of 1.23 ± 0.76.
For YKNIPFTYGSFVLASYMSRK the value was 0.368 ± 0.63; for CFYNKRLCGRPFMLVWQNYS, 0.161 ± 0.56.
The same measure for ANIHYL: 2.63 ± 0.12; for HYVYRGQLRGHACKGWSYFG: 0.531 ± 0.51; for FWRNEVMLSCVGTAMARRVF: 0.398 ± 0.37.
For DKLLPHFK the value was “inactive”.
EPCMWKVILYCEYVSLVFVK yielded an amyloid nucleation score of -0.974 ± 1.9.
For PYLYRTLKKPLATHWSQFVK the value was -1.22 ± 0.9.
For the substance RLRSMAAP, the amyloid nucleation score amounted to 0.513 ± 0.66.
For the substance YANCL, the amyloid nucleation score came out at 0.517 ± 0.44.
LSGMDTLGIVRCAVA: the amyloid nucleation score was -0.325 ± 0.46.
In turn, VSCWLQISDLRAVAWPLRSF returned an amyloid nucleation score of 0.588 ± 0.21.
SRVLRPS showed an amyloid nucleation score of -0.174 ± 0.4.
Substance FCSLLHPFTWYLSEHSMGLG came in with an amyloid nucleation score of 0.541 ± 0.57.
The substance TELGVSPIAKRRNSVLDHAL displayed an amyloid nucleation score of -0.449 ± 1.1.
As to AVVLLLNRTD, the amyloid nucleation score worked out at 0.282 ± 0.59.
For the substance LLRYITARETSLTQSQP, the amyloid nucleation score was 0.298 ± 0.53.
As for ILCKVPVVASSNGS, the amyloid nucleation score is -0.35 ± 0.5.
SGAVCIQALKVDTQCFADMI had an amyloid nucleation score of -0.413 ± 0.38.
ISGMRGFILLGRRVFTKVSS returned an amyloid nucleation score of -0.277 ± 0.33.
TRTTKMAH: the amyloid nucleation score was found to be 1.24 ± 0.45.
On to SSTILQLCSPNRRLRSTKLG, for which the amyloid nucleation score worked out at 1.97 ± 0.7.
SCPGK returned an amyloid nucleation score of 0.001 ± 0.44.
The same measure for ASFLRNVFWVIREYTLCEYV: 0.647 ± 0.19; for KQNNGFGWEYEAGGLHRKGA: -0.989 ± 2.7.
For the substance VWNYVYGMMWCM, the amyloid nucleation score was found to be 5.54 ± 0.09.
YFFRKLSGSWASSFLVAPMV registered an amyloid nucleation score of 0.444 ± 0.59.
The substance DTVSLWLPARMTNDNFQDLS yielded an amyloid nucleation score of 0.399 ± 0.22.
RFLYVGCCINTIVGFTWFRS gave an amyloid nucleation score of 3.28 ± 0.11.
For IKWANREALLLWVELGRLRW the value was -0.66 ± 0.84.
In turn, NSDGSLSKTRKRAGAQVSRQ showed an amyloid nucleation score of 0.312 ± 1.1.
As to MFCLALECEVHLGMHYYNHA, the amyloid nucleation score is 0.906 ± 0.2.
Take RKSPATVVFSRPSLWLYGRR: the amyloid nucleation score worked out at 2.97 ± 0.094.
The same measure for TYFSDLVRRRRCKAGNVWFL: 1.58 ± 0.74.
With NDTMWMSSGLSPCVSSPSLG, the amyloid nucleation score was -0.252 ± 1.4.
For ILVGCSKSRRLNGGQLLIPS the value was 0.314 ± 0.45; for CLWCDRTVASWAKVSASVRL, -0.073 ± 0.24; for CKDFRRAVVNEFPVSVSFYC, 0.922 ± 0.9.
Substance ERAQYMSRTVRRVSFKSFFC had an amyloid nucleation score of 3.55 ± 0.13.
Regarding NLPVGLEAM, the amyloid nucleation score was -0.327 ± 0.62.
For PYKLFHVVSCCRTQGDNVAK, the amyloid nucleation score was -0.813 ± 0.49.
CAVTDVRIIIHF yielded an amyloid nucleation score of 2.15 ± 0.22.
For SSSRNLVSSRCLQVYLPMHA the value was 0.986 ± 0.71.
For CESGW the value was -0.115 ± 1.2.
